From paper PMC9394431 (Cell, 2022)

Molecular target: T1, α1β2γ2 GABAA receptor (Homo sapiens)
T1 chain 1: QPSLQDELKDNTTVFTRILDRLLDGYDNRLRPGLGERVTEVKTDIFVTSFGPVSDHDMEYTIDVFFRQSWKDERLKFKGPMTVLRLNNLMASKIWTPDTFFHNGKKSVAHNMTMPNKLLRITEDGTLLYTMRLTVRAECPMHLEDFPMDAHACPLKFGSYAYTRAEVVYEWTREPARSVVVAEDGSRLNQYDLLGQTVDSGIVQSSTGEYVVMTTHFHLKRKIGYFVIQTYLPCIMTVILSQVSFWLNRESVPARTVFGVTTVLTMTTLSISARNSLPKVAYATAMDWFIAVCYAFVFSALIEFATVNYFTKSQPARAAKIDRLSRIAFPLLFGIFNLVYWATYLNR
T1 chain 2: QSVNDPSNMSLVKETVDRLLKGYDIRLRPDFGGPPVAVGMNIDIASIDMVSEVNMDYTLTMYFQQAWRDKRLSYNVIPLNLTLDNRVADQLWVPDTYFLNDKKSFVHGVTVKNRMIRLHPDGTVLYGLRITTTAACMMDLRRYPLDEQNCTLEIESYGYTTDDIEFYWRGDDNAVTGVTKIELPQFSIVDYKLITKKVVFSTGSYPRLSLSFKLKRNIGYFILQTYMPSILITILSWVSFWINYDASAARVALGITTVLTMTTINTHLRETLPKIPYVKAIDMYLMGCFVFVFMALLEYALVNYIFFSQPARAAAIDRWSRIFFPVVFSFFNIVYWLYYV
T1 chain 3: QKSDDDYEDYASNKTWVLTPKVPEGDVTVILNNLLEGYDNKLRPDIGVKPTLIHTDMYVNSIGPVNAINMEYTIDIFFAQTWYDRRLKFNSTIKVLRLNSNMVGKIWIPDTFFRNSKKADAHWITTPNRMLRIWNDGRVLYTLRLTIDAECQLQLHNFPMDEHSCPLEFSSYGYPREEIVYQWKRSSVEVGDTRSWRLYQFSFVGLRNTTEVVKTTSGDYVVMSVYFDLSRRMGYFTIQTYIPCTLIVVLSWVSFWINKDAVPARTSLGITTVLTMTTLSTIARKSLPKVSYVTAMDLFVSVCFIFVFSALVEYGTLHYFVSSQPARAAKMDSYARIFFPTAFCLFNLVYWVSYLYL
Experiment: SEC

B1: Fab175 (Fab, V domains shown)
VH: EVQLLESGEGLVQPGGSLRLSCAASGFTFKTYAMSWVRQAPGKGLEWVSAISGSGASTYYADFVEGRFTISRDNSKNTLYLQMNSLRAEDTAVYYCAKEPPAMVWFGGGYFDYWGQGTLVTVSS
VL: EIVLTQSPATLSLSPGERATLSCRASQSVSSYLAWYQQKPGQAPRLLIYDASNRATGIPARFSGSGSGTDFTLTISSLEPEDFAVYYCQQRSNWPPYSFGQGTKLEIK
With B1 the “stoichiometry N” value was 1 Fab per receptor.
